In the supplement of paper PMC10567573:

B1: FCHO1 (parent)
chain: FSDPSQSDPETKDFWLNMAALTEA

Variants of: B1
Experiment: protein stability index of a GFP-peptide fusion (GPS, HEK-293T) (PSI 1-6); higher = more stable
Settings: c terminus: a fixed tail appended
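Also: lentivirally expressed fusions sorted by FACS into six bins by GFP to DsRed ratio, PSI derived from sequencing read proportions per bin multiplied by bin number.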

Variant | protein stability index
FSDPSQSDPETKDFWLNMAALTCA | 1.63
FSDPSQSDPETKDFWLNMAALTQA | 2.86
FSDPSQSDPETKDFWLNMAALTYA | 2.1
FSDPSQSDPETKDFWLNMAALTKA | 2.3
FSDPSQSDPETKDFWLNMAALTLA | 2.3
FSDPSQSDPETKDFWLNMAALTGA | 2.61
FSDPSQSDPETKDFWLNMAALTNA | 2.58
FSDPSQSDPETKDFWLNMAAGTEA | 2.52
FSDPSQSDPETKDFWLNMAAITEA | 3
FSDPSQSDPETKDFWLNMAAYTEA | 2.38
FSDPSQSDPETKDFWLNMAAETEA | 3.9
FSDPSQSDPETKDFWLNMAAFTEA | 2.1
FSDPSQSDPETKDFWLNMAARTEA | 2.95
FSDPSQSDPETKDFWLNMAAQTEA | 3.3
FSDPSQSDPETKDFWLNMAAATEA | 2.63
FSDPSQSDPETKDFWLNMAAMTEA | 2.77
FSDPSQSDPETKDFWLNMAADTEA | 3.27
FSDPSQSDPETKDFWLNMAANTEA | 2.88
FSDPSQVDPETKDFWLNMAALTEA | 3.29
FSDPSQRDPETKDFWLNMAALTEA | 2.64
FSDPSQTDPETKDFWLNMAALTEA | 2.74
FSDPSQPDPETKDFWLNMAALTEA | 3.92
FSDPSQGDPETKDFWLNMAALTEA | 2.6
FSDPSQDDPETKDFWLNMAALTEA | 3.73

Variant | protein stability index
FSDPSQCDPETKDFWLNMAALTEA | 2.9
FSDPSQQDPETKDFWLNMAALTEA | 3.18
FSDYSQSDPETKDFWLNMAALTEA | 1.85
FSDASQSDPETKDFWLNMAALTEA | 2.81
FSDVSQSDPETKDFWLNMAALTEA | 2.65
FSDESQSDPETKDFWLNMAALTEA | 3.37
FSDRSQSDPETKDFWLNMAALTEA | 2.02
FSDPSQSSPETKDFWLNMAALTEA | 2.71
FSDPSQSEPETKDFWLNMAALTEA | 3.1
FSDPSQSTPETKDFWLNMAALTEA | 2.81
FSDPSQSCPETKDFWLNMAALTEA | 2.62
FSDPSQSLPETKDFWLNMAALTEA | 2.63
FSDPSQSDPETFDFWLNMAALTEA | 2.6
FSDPSQSDPETSDFWLNMAALTEA | 3.26
FSDPSQSDPETNDFWLNMAALTEA | 3.66
FSDPSQSDPETIDFWLNMAALTEA | 3.11
FSDPSQSDPETQDFWLNMAALTEA | 3.43
FSDPSQSDPETYDFWLNMAALTEA | 2.97
FSDPSQSDPETADFWLNMAALTEA | 3.25
FSDPSQSDPETLDFWLNMAALTEA | 2.62
FSDPSQSDPETMDFWLNMAALTEA | 3.07
FSDPSQSDPETDDFWLNMAALTEA | 4.39
FLDPSQSDPETKDFWLNMAALTEA | 2.65
FCDPSQSDPETKDFWLNMAALTEA | 1.69

Variant | protein stability index
FADPSQSDPETKDFWLNMAALTEA | 1.7
FMDPSQSDPETKDFWLNMAALTEA | 3.5
FKDPSQSDPETKDFWLNMAALTEA | 4.22
FSDPSQSDPETKDFKLNMAALTEA | 4.85
FSDPSQSDPETKDFALNMAALTEA | 4.88
FSDPSQSDPETKDFDLNMAALTEA | 5.32
FSDPSQSDPETKDFELNMAALTEA | 4.68
FSDPSQSDPETKDFYLNMAALTEA | 4.38
FSDPSQSDPETKDFQLNMAALTEA | 4.45
FSDPSQSDPETKDFVLNMAALTEA | 4.77
FSDPSQSDPETKDFGLNMAALTEA | 4.65
FSDPSQSDPETKDFPLNMAALTEA | 4.66
FSDPSQSDPETKDFWLNMAGLTEA | 2.65
FSDPSQSDPETKDFWLNMAHLTEA | 2.82
FSDPSQSDPETKDFWLNMAPLTEA | 2.96
FSDPSQSDPETKDFWLNMAILTEA | 2.38
FSDPSQSDPETKDFWLNMARLTEA | 2.81
FSDPSQSDPETKDFWLNMACLTEA | 2.34
FSDPSQSDPETKDFWLNMAWLTEA | 2.16
FSDPSQSDPGTKDFWLNMAALTEA | 2.03
FSDPSQSDPYTKDFWLNMAALTEA | 2.14
FSDPSQSDPHTKDFWLNMAALTEA | 1.97
FSDPSQSDPITKDFWLNMAALTEA | 2.45
FSDPSQSDPRTKDFWLNMAALTEA | 2.29

Variant | protein stability index
FSDPSQSDPLTKDFWLNMAALTEA | 2.33
FSDPSQSDPFTKDFWLNMAALTEA | 1.94
FSDPSQSDPNTKDFWLNMAALTEA | 1.9
FSDPSQSDPMTKDFWLNMAALTEA | 1.94
FSDPSQSDPCTKDFWLNMAALTEA | 2.06
FSDPSQSDPETKDFWLNMFALTEA | 2.18
FSDPSQSDPETKDFWLNMLALTEA | 2.44
FSDPSQSDPETKDFWLNMWALTEA | 2.09
FSDPSQSDPETKDFWLNMRALTEA | 3.21
FSDPSQSDPETKDFWLNMTALTEA | 1.79
FSDPSQSDPETKDFWLNMVALTEA | 2.25
FSDPSQSDPETKDFWLNMGALTEA | 2.01
FSDPSQSDPETKDFWLNMCALTEA | 2.23
FSDPSQSDPETKDFWLNMHALTEA | 1.96
FSDPSQSDPETKDFWLNMQALTEA | 3.02
FSDPSQSDPETKDFWLNMIALTEA | 2.47
FSDPSQSDPETKDFWLNMPALTEA | 2.7
FSDPSQSDPETKDFWLWMAALTEA | 2.49
FSDPSQSDPETKDFWLMMAALTEA | 2.73
FSDPSQSDPETKDFWLGMAALTEA | 2.67
FSDPSQSDPETKDFWLSMAALTEA | 2.49
FSDPSQSDPETKDFWLVMAALTEA | 1.88
